Assay results from paper PMC10540216, “Activity Guided Azide-methyllysine Photo-trapping for Substrate Profiling of Lysine Demethylases” (Journal of the American Chemical Society, 2023).

B1: DDX3X_HUMAN (protein, UniProt O00571 2-662, looked up)
ATP-dependent RNA helicase …: SHVAVENALGLDQQFAGLDLNSSDNQSGGSTASKGRYIPPHLRNREATKGFYDKDSSGWSSSKDKDAYSSFGSRSDSRGKSSFFSDRGSGSRGRFDDRGRSDYDGIGSRGDRSGFGKFERGGNSRWCDKSDEDDWSKPLPPSERLEQELFSGGNTGINFEKYDDIPVEATGNNCPPHIESFSDVEMGEIIMGNIELTRYTRPTPVQKHAIPIIKEKRDLMACAQTGSGKTAAFLLPILSQIYSDGPGEALRAMKENGRYGRRKQYPISLVLAPTRELAVQIYEEARKFSYRSRVRPCVVYGGADIGQQIRDLERGCHLLVATPGRLVDMMERGKIGLDFCKYLVLDEADRMLDMGFEPQIRRIVEQDTMPPKGVRHTMMFSATFPKEIQMLARDFLDEYIFLAVGRVGSTSENITQKVVWVEESDKRSFLLDLLNATGKDSLTLVFVETKKGADSLEDFLYHEGYACTSIHGDRSQRDREEALHQFRSGKSPILVATAVAARGLDISNVKHVINFDLPSDIEEYVHRIGRTGRVGNLGLATSFFNERNINITKDLLDLLVEAKQEVPSWLENMAYEHHYKGSSRGRSKSSRFSGGFGARDYRQSSGASSSSFSSSRASSSRSGGGGHGSSRGFGGGGYGGFYNSDGYGGNYNSQGVDWWGN
B2: SND1_HUMAN (protein, UniProt Q7KZF4 2-910, looked up)
Staphylococcal nuclease …: ASSAQSGGSSGGPAVPTVQRGIIKMVLSGCAIIVRGQPRGGPPPERQINLSNIRAGNLARRAAATQPDAKDTPDEPWAFPAREFLRKKLIGKEVCFTIENKTPQGREYGMIYLGKDTNGENIAESLVAEGLATRREGMRANNPEQNRLSECEEQAKAAKKGMWSEGNGSHTIRDLKYTIENPRHFVDSHHQKPVNAIIEHVRDGSVVRALLLPDYYLVTVMLSGIKCPTFRREADGSETPEPFAAEAKFFTESRLLQRDVQIILESCHNQNILGTILHPNGNITELLLKEGFARCVDWSIAVYTRGAEKLRAAERFAKERRLRIWRDYVAPTANLDQKDKQFVAKVMQVLNADAIVVKLNSGDYKTIHLSSIRPPRLEGENTQDKNKKLRPLYDIPYMFEAREFLRKKLIGKKVNVTVDYIRPASPATETVPAFSERTCATVTIGGINIAEALVSKGLATVIRYRQDDDQRSSHYDELLAAEARAIKNGKGLHSKKEVPIHRVADISGDTQKAKQFLPFLQRAGRSEAVVEYVFSGSRLKLYLPKETCLITFLLAGIECPRGARNLPGLVQEGEPFSEEATLFTKELVLQREVEVEVESMDKAGNFIGWLHIDGANLSVLLVEHALSKVHFTAERSSYYKSLLSAEEAAKQKKEKVWAHYEEQPVEEVMPVLEEKERSASYKPVFVTEITDDLHFYVQDVETGTQLEKLMENMRNDIASHPPVEGSYAPRRGEFCIAKFVDGEWYRARVEKVESPAKIHVFYIDYGNREVLPSTRLGTLSPAFSTRVLPAQATEYAFAFIQVPQDDDARTDAVDSVVRDIQNTQCLLNVEHLSAGCPHVTLQFADSKGDVGLGLVKEGLVMVEVRKEKQFQKVITEYLNAQESAKSARLNLWRYGDFRADDADEFGYSR
B3: ACON_HUMAN (protein, UniProt Q99798 28-780, looked up)
Aconitate hydratase, …: QRAKVAMSHFEPNEYIHYDLLEKNINIVRKRLNRPLTLSEKIVYGHLDDPASQEIERGKSYLRLRPDRVAMQDATAQMAMLQFISSGLSKVAVPSTIHCDHLIEAQVGGEKDLRRAKDINQEVYNFLATAGAKYGVGFWKPGSGIIHQIILENYAYPGVLLIGTDSHTPNGGGLGGICIGVGGADAVDVMAGIPWELKCPKVIGVKLTGSLSGWSSPKDVILKVAGILTVKGGTGAIVEYHGPGVDSISCTGMATICNMGAEIGATTSVFPYNHRMKKYLSKTGREDIANLADEFKDHLVPDPGCHYDQLIEINLSELKPHINGPFTPDLAHPVAEVGKVAEKEGWPLDIRVGLIGSCTNSSYEDMGRSAAVAKQALAHGLKCKSQFTITPGSEQIRATIERDGYAQILRDLGGIVLANACGPCIGQWDRKDIKKGEKNTIVTSYNRNFTGRNDANPETHAFVTSPEIVTALAIAGTLKFNPETDYLTGTDGKKFRLEAPDADELPKGEFDPGQDTYQHPPKDSSGQHVDVSPTSQRLQLLEPFDKWDGKDLEDLQILIKVKGKCTTDHISAAGPWLKFRGHLDNISNNLLIGAINIENGKANSVRNAVTQEFGPVPDTARYYKKHGIRWVVIGDENYGEGSSREHAALEPRHLGGRAIITKSFARIHETNLKKQGLLPLTFADPADYNKIHPVDKLTIQGLKDFTPGKPLKCIIKHPNGTQETILLNHTFNETQIEWFRAGSALNRMKELQQ
B4: TOP1_HUMAN (protein, UniProt P11387 2-765, looked up)
DNA topoisomerase 1: SGDHLHNDSQIEADFRLNDSHKHKDKHKDREHRHKEHKKEKDREKSKHSNSEHKDSEKKHKEKEKTKHKDGSSEKHKDKHKDRDKEKRKEEKVRASGDAKIKKEKENGFSSPPQIKDEPEDDGYFVPPKEDIKPLKRPRDEDDADYKPKKIKTEDTKKEKKRKLEEEEDGKLKKPKNKDKDKKVPEPDNKKKKPKKEEEQKWKWWEEERYPEGIKWKFLEHKGPVFAPPYEPLPENVKFYYDGKVMKLSPKAEEVATFFAKMLDHEYTTKEIFRKNFFKDWRKEMTNEEKNIITNLSKCDFTQMSQYFKAQTEARKQMSKEEKLKIKEENEKLLKEYGFCIMDNHKERIANFKIEPPGLFRGRGNHPKMGMLKRRIMPEDIIINCSKDAKVPSPPPGHKWKEVRHDNKVTWLVSWTENIQGSIKYIMLNPSSRIKGEKDWQKYETARRLKKCVDKIRNQYREDWKSKEMKVRQRAVALYFIDKLALRAGNEKEEGETADTVGCCSLRVEHINLHPELDGQEYVVEFDFLGKDSIRYYNKVPVEKRVFKNLQLFMENKQPEDDLFDRLNTGILNKHLQDLMEGLTAKVFRTYNASITLQQQLKELTAPDENIPAKILSYNRANRAVAILCNHQRAPPKTFEKSMMNLQTKIDAKKEQLADARRDLKSAKADAKVMKDAKTKKVVESKKKAVQRLEEQLMKLEVQATDREENKQIALGTSKLNYLDPRITVAWCKKWGVPIEKIYNKTQREKFAWAIDMADEDYEF
B5: SYDM_HUMAN (protein, UniProt Q6PI48 48-645, looked up)
Aspartate--tRNA ligase, …: VVRTNTCGELRSSHLGQEVTLCGWIQYRRQNTFLVLRDFDGLVQVIIPQDESAASVKKILCEAPVESVVQVSGTVISRPAGQENPKMPTGEIEIKVKTAELLNACKKLPFEIKNFVKKTEALRLQYRYLDLRSFQMQYNLRLRSQMVMKMREYLCNLHGFVDIETPTLFKRTPGGAKEFLVPSREPGKFYSLPQSPQQFKQLLMVGGLDRYFQVARCYRDEGSRPDRQPEFTQIDIEMSFVDQTGIQSLIEGLLQYSWPNDKDPVVVPFPTMTFAEVLATYGTDKPDTRFGMKIIDISDVFRNTEIGFLQDALSKPHGTVKAICIPEGAKYLKRKDIESIRNFAADHFNQEILPVFLNANRNWNSPVANFIMESQRLELIRLMETQEEDVVLLTAGEHNKACSLLGKLRLECADLLETRGVVLRDPTLFSFLWVVDFPLFLPKEENPRELESAHHPFTAPHPSDIHLLYTEPKKARSQHYDLVLNGNEIGGGSIRIHNAELQRYILATLLKEDVKMLSHLLQALDYGAPPHGGIALGLDRLICLVTGSPSIRDVIAFPKSFRGHDLMSNTPDSVPPEELKPYHIRVSKPTDSKAERAH
B6: PNPT1_HUMAN (protein, UniProt Q8TCS8 46-783, looked up)
Polyribonucleotide …: AVAVDLGNRKLEISSGKLARFADGSAVVQSGDTAVMVTAVSKTKPSPSQFMPLVVDYRQKAAAAGRIPTNYLRREIGTSDKEILTSRIIDRSIRPLFPAGYFYDTQVLCNLLAVDGVNEPDVLAINGASVALSLSDIPWNGPVGAVRIGIIDGEYVVNPTRKEMSSSTLNLVVAGAPKSQIVMLEASAENILQQDFCHAIKVGVKYTQQIIQGIQQLVKETGVTKRTPQKLFTPSPEIVKYTHKLAMERLYAVFTDYEHDKVSRDEAVNKIRLDTEEQLKEKFPEADPYEIIESFNVVAKEVFRSIVLNEYKRCDGRDLTSLRNVSCEVDMFKTLHGSALFQRGQTQVLCTVTFDSLESGIKSDQVITAINGIKDKNFMLHYEFPPYATNEIGKVTGLNRRELGHGALAEKALYPVIPRDFPFTIRVTSEVLESNGSSSMASACGGSLALMDSGVPISSAVAGVAIGLVTKTDPEKGEIEDYRLLTDILGIEDYNGDMDFKIAGTNKGITALQADIKLPGIPIKIVMEAIQQASVAKKEILQIMNKTISKPRASRKENGPVVETVQVPLSKRAKFVGPGGYNLKKLQAETGVTISQVDEETFSVFAPTPSAMHEARDFITEICKDDQEQQLEFGAVYTATITEIRDTGVMVKLYPNMTAVLLHNTQLDQRKIKHPTALGLEVGQEIQVKYFGRDPADGRMRLSRKVLQSPATTVVRTLNDRSSIVMGEPISQSSSNSQ
B7: DC1I2_HUMAN (protein, UniProt Q13409 2-638, looked up)
Cytoplasmic dynein 1 …: SDKSELKAELERKKQRLAQIREEKKRKEEERKKKETDQKKEAVAPVQEESDLEKKRREAEALLQSMGLTPESPIVFSEYWVPPPMSPSSKSVSTPSEAGSQDSGDGAVGSRTLHWDTDPSVLQLHSDSDLGRGPIKLGMAKITQVDFPPREIVTYTKETQTPVMAQPKEDEEEDDDVVAPKPPIEPEEEKTLKKDEENDSKAPPHELTEEEKQQILHSEEFLSFFDHSTRIVERALSEQINIFFDYSGRDLEDKEGEIQAGAKLSLNRQFFDERWSKHRVVSCLDWSSQYPELLVASYNNNEDAPHEPDGVALVWNMKYKKTTPEYVFHCQSAVMSATFAKFHPNLVVGGTYSGQIVLWDNRSNKRTPVQRTPLSAAAHTHPVYCVNVVGTQNAHNLISISTDGKICSWSLDMLSHPQDSMELVHKQSKAVAVTSMSFPVGDVNNFVVGSEEGSVYTACRHGSKAGISEMFEGHQGPITGIHCHAAVGAVDFSHLFVTSSFDWTVKLWTTKNNKPLYSFEDNADYVYDVMWSPTHPALFACVDGMGRLDLWNLNNDTEVPTASISVEGNPALNRVRWTHSGREIAVGDSEGQIVIYDVGEQIAVPRNDEWARFGRTLAEINANRADAEEEAATRIPA
B8: HXK1_HUMAN (protein, UniProt P19367 1-917, looked up)
Hexokinase-1: MIAAQLLAYYFTELKDDQVKKIDKYLYAMRLSDETLIDIMTRFRKEMKNGLSRDFNPTATVKMLPTFVRSIPDGSEKGDFIALDLGGSSFRILRVQVNHEKNQNVHMESEVYDTPENIVHGSGSQLFDHVAECLGDFMEKRKIKDKKLPVGFTFSFPCQQSKIDEAILITWTKRFKASGVEGADVVKLLNKAIKKRGDYDANIVAVVNDTVGTMMTCGYDDQHCEVGLIIGTGTNACYMEELRHIDLVEGDEGRMCINTEWGAFGDDGSLEDIRTEFDREIDRGSLNPGKQLFEKMVSGMYLGELVRLILVKMAKEGLLFEGRITPELLTRGKFNTSDVSAIEKNKEGLHNAKEILTRLGVEPSDDDCVSVQHVCTIVSFRSANLVAATLGAILNRLRDNKGTPRLRTTVGVDGSLYKTHPQYSRRFHKTLRRLVPDSDVRFLLSESGSGKGAAMVTAVAYRLAEQHRQIEETLAHFHLTKDMLLEVKKRMRAEMELGLRKQTHNNAVVKMLPSFVRRTPDGTENGDFLALDLGGTNFRVLLVKIRSGKKRTVEMHNKIYAIPIEIMQGTGEELFDHIVSCISDFLDYMGIKGPRMPLGFTFSFPCQQTSLDAGILITWTKGFKATDCVGHDVVTLLRDAIKRREEFDLDVVAVVNDTVGTMMTCAYEEPTCEVGLIVGTGSNACYMEEMKNVEMVEGDQGQMCINMEWGAFGDNGCLDDIRTHYDRLVDEYSLNAGKQRYEKMISGMYLGEIVRNILIDFTKKGFLFRGQISETLKTRGIFETKFLSQIESDRLALLQVRAILQQLGLNSTCDDSILVKTVCGVVSRRAAQLCGAGMAAVVDKIRENRGLDRLNVTVGVDGTLYKLHPHFSRIMHQTVKELSPKCNVSFLLSEDGSGKGAALITAVGVRLRTEASS

The molecules below were run on KDM4A-I71AzF (assay: CASI: photo-crosslinking with HEK293T cell extracts, StrepTactin enrichment and LC-MS/MS proteomics). Settings: sheet "Final results but with 0.01".
Assay type: binding, human
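Further: lysates from HEK293T cells pretreated with a KDM4 inhibitor to raise proteome methylation, affinity-purified after ±UV, gel-resolved, trypsin-digested, with exclusive unique peptides per protein averaged per condition.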

First: B1
Second: B2
The “Fold change (+UV/-UV)” value of the first is lower: 0.7778 for the first, 1.5 for the second.

First: B3
Second: B4
The “Fold change (+UV/-UV)” value of the first is higher: 0.4 for the first, 0 for the second.

Compared with B5, B6 is lower in “Fold change (+UV/-UV)” value: 1.2 for the first, 0 for the second.

B7 and B8 are the same in “Fold change (+UV/-UV)” value: 1 for the first, 1 for the second.
